What all share (assay): fluorescence polarisation
(In general: Polarisation of emitted light reports the rotation of a fluorescent probe.)

Assay [1] deals with Sgo1 peptide (residues 446–466) bearing fluorescein (UniProt Q5FBB7).
The target in assay [2] is chemically synthesized full-length heterochromatin protein 1α without PTMs (21) (UniProt P45973 1-191).
A further assay addresses recombinant HP1α (UniProt P45973 1-191).

For two molecules, Kd results are on record in publication PMC8872386 (Chemical Science, 2021).

Ends that are not written are not given here.

As usually defined, the Kd is a measure of binding affinity in units of concentration.

Sequence of recombinant HP1α (P45973 whole entry): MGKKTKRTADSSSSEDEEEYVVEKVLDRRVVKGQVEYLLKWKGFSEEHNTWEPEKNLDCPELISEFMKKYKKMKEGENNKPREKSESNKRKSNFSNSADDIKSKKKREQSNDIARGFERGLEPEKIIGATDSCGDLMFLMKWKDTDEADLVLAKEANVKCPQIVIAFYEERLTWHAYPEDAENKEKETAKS
Sequence of chemically synthesized full-length heterochromatin protein 1α without PTMs (21) (P45973 whole entry): as above

Molecule “chemically synthesized HP1α ubiquitinated at K154 (21f) (from UniProt P45973 1-191; P0CG48 1-76)” registered a dissociation constant (Kd) in assay [1] of 1.87 µM. As for NVSLYPVVKIRRLSLSPKKNK (peptide, UniProt Q5FBB7 446-466, looked up, also: fluorescein, position not given here) [Sgo1 peptide (residues 446–466) bearing fluorescein], the Kd is 0.47 µM in assay [2] and 0.51 µM in the assay with recombinant HP1α.
